Like-named read-outs stand apart in the source and are kept apart here.
Columns and labels:
Assay in all cases: AUC
SynB1-Cys-ELP1 [1] = target: SynB1-Cys-ELP1
SynB1-Cys-ELP1 [2] = target: SynB1-Cys-ELP1; remark: listed apart in the source
Bac-Cys-ELP1 [3] = target: Bac-Cys-ELP1
Bac-Cys-ELP1 [4] = target: Bac-Cys-ELP1; remark: listed apart in the source

| Substance | Ka (SynB1-Cys-ELP1 [1]) [M⁻¹] | Ka (SynB1-Cys-ELP1 [2]) [M⁻¹] | Ka (Bac-Cys-ELP1 [3]) [M⁻¹] | Ka (Bac-Cys-ELP1 [4]) [M⁻¹] |
| --- | --- | --- | --- | --- |
| SynB1-Cys-ELP1 | 1480 | 597 | – | – |
| Bac-Cys-ELP1 | – | – | 1290 | 552 |

Reference: publication PMC3985474
